Measurements: article PMC7876045

Target: RNAP sigma70 holoenzyme (Esigma70) (Escherichia coli) (UniProt P0A7Z4+P0A8V2+P0A8T7+P0A800+P00579)
Test: KMnO4 footprinting
Conditions: 40 mM Tris-HCl pH 8.0, 1 mM DTT, 0.1 mg/ml BSA, 10 mM MgCl2, 50 mM KCl, 37 C (transcription buffer); 150 nM Esigma70, sample mixed 1:1 with 20 mM KMnO4 for …

Sequence | binding
ACCTCGGTATGCCTTGTGACTGGCTTGACAAGCTTTTCCTCAGCTCCGTAAACTCCTTTCAGTGGGAAATTGTGGGGCAAAGTGGGAATAAGGGGTGAGGCTGGCATGTTCCGGGGAGCAA (double strand) [mraZ promoter (G1p) permanganate template] | binds
ATCGCCAGCGCGCGATGATGTTCCGAAGACTATAAGGCATGTTATAGTCTGGATTATATTGAGGCAAGTCACCCTCCCATTTATTCAGAGTAAAAGTCTATTCTGTGATAAATGGC (double strand) [minC promoter (G1d) permanganate template] | binds
